US20090137003A1

Assays:
[1] = molecular target: RSV protein F of strain B Wash/18537 (RSV B Wash/18537 (ATCC number VR-1580)) (UniProt P13843); assay: cell-based or functional assay
[2] = molecular target: RSV protein F of strain Long (RSV Long (ATCC number VR-26)) (UniProt P12568); assay: cell-based or functional assay
[3] = molecular target: RSV protein F of strain B1 (RSV B1 (ATCC number VR-1400)) (UniProt O36634); assay: cell-based or functional assay
[4] = molecular target: RSV protein G (recombinant G protein) (respiratory syncytial virus (RSV), strain not stated); assay: SPR (Biacore), Fab on recombinant antigen

RSV protein F of strain B1 (RSV B1 (ATCC number VR-1400)), sequence (O36634 26-574 limits assumed): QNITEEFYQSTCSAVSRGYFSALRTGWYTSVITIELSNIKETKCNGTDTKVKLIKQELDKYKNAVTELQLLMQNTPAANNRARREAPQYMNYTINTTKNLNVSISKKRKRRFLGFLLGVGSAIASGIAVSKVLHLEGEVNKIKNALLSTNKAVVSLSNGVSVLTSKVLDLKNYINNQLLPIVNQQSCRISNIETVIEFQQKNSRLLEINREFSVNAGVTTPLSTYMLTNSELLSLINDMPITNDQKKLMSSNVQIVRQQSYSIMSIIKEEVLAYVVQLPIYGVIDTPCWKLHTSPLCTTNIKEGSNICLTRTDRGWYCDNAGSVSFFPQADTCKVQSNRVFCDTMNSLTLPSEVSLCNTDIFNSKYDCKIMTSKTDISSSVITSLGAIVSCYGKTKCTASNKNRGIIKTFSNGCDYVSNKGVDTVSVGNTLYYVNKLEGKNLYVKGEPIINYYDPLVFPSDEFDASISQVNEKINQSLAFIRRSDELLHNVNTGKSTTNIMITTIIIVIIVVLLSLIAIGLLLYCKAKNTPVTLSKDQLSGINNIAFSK
RSV protein F of strain B Wash/18537 (RSV B Wash/18537 (ATCC number VR-1580)), sequence (P13843 26-574): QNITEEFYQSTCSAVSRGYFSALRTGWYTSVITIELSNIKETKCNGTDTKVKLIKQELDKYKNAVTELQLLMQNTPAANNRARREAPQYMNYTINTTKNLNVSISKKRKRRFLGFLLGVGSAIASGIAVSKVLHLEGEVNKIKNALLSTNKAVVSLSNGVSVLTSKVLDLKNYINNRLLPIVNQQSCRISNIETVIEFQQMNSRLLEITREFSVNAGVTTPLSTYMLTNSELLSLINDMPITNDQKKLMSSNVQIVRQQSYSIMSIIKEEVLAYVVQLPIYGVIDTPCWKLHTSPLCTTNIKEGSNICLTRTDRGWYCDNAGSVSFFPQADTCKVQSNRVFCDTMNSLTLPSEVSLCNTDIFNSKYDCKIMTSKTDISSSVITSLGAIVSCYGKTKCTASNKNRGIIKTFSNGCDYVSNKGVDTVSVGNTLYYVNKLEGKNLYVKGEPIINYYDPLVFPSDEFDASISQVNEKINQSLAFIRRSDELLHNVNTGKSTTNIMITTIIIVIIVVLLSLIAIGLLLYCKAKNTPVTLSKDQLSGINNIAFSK
RSV protein F of strain Long (RSV Long (ATCC number VR-26)), sequence (P12568 26-574): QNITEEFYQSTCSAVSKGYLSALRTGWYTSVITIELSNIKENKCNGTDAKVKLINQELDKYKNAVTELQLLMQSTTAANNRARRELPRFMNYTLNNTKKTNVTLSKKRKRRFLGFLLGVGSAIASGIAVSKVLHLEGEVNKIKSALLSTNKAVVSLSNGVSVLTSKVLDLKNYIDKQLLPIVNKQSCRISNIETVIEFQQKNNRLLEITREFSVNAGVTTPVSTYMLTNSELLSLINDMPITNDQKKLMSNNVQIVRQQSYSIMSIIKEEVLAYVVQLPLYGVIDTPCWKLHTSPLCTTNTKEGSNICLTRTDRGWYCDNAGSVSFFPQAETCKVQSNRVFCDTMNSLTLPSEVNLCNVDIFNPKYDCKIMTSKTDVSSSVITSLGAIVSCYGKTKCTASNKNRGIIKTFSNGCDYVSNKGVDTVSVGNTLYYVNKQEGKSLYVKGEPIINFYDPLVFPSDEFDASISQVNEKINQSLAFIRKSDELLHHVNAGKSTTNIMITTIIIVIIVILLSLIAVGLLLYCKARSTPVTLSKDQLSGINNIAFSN

Binder	PRNT EC50 with complement, RSV 18537 [1]	PRNT EC50 with complement, RSV Long [2]	PRNT EC50 with complement, RSV B1 [3]	Kd [4]	koff [4]	kon [4]	t1/2 [4]
antibody clone 818 (antibody, human IgG1, kappa, V domains shown) VH: QVTLRESGPAVVKPTETLTLTCAFSGFSLNAGRVGVSWIRQPPGQAPEWLARIDWDDDKAFRTSLKTRLSISKDSSKNQVVLTLSNMDPADTATYYCARTQVFASGGYYLYYLDHWGQGTLVTVSS VL: DIQMTQSPSSLSASVGDRVTITCRASQTIASYVNWYQQKPGRAPSLLIYAASNLQSGVPPRFSGSGSGTDFTLTISGLQPDDFATYYCQQSYSYRALTFGGGTKVEIKR	0.21 µg/mL	0.15 µg/mL					
antibody clone 827 (antibody, human IgG1, kappa, V domains shown) VH: QVQLVQSGAEVKKPGASVKVSCRVSGHTFTALSKHWMRQGPGGGLEWMGFFDPEDGDTGYAQKFQGRVTMTEDTATGTAYMELSSLTSDDTAVYYCATVAAAGNFDNWGQGTLVTVSS VL: DIQMTQSPSSLAASVGDRVTITCRASQFISSYLHWYQQRPGKAPKLLMYAASTLQSGVPSRFSGSGSGTDFTLTISSLQPEDFATYYCQQSYTNPYTFGQGTKLEIKR	0.1 µg/mL	0.16 µg/mL					
antibody clone 831 (antibody, human IgG1, kappa, V domains shown) VH: QVQLVQSGAEVKKPGASVKVSCKASANIFTYAMHWVRQAPGQRLEWMGWINVGNGQTKYSQRFQGRVTITRDTSATTAYMELSTLRSEDTAVYYCARRASQYGEVYGNYFDYWGQGTLVTVSS VL: DIQMTQSPSTLSASVGDRLTITCRASQNIYNWLAWYQQKPGKAPKLLIYDASTLESGVPSRFSGSGSGTEFTLTISSLQPDDFATYYCQQYNSLSPTFGQGTKVEIKR	0.72 µg/mL	0.08 µg/mL	1.66 µg/mL				
antibody clone 800 (antibody, human IgG1, kappa, V domains shown) VH: QVQLVESGGAVVQPGRSLRLSCEVSGFSFSDYGMNWVRQGPGKGLEWVAVIWHDGSNKNYLDSVKGRFTVSRDNSKNTLFLQMNSLRAEDTAVYYCARTPYEFWSGYYFDFWGQGTLVTVSS VL: AIQLTQSPSSLSASVGDRVTLTCRASQGITDSLAWYQQKPGKAPKVLLYAASRLESGVPSRFSGRGSGTDFTLTISSLQPEDFATYYCQQYSKSPATFGPGTKVEIRR		0.15 µg/mL	0.16 µg/mL				
antibody clone 880 (antibody, human IgG1, kappa, V domains shown) VH: QITLKESGPTLVRPTQTLTLTCTFSGFSLSTSKLGVGWIRQPPGKALEWLALVDWDDDRRYRPSLKSRLTVTKDTSKNQVVLTMTNMDPVDTATYYCAHSAYYTSSGYYLQYFHHWGPGTLVTVSS VL: DIQMTQSPSSLAASVGDRVTITCRASQTIASYVNWYQQKPGKAPNLLIYAASSLQSGVPSRFSGSGSGTDFTLTISSLQPEDFASYFCQQSYSFPYTFGQGTKLDIKR	0.95 µg/mL	0.38 µg/mL	0.4 µg/mL				
antibody clone 894 (antibody, human IgG1, kappa, V domains shown) VH: QVQLVESGGGVVQPGKSLRLSCAASGFRFSDYGMHWVRQAPSKGLEWVAVIWHDGSNIRYADSVRGRFSISRDNSKNTLYLQMNSMRADDTAFYYCARVPFQIWSGLYFDHWGQGTLVTVSS VL: EIVMTQSPATLSVSPGERATLSCRASQSVGNNLAWYQQRPGQAPRLLIYGASTRATGIPARFSGSGSGTEFTLTISSLQSEDFAVYYCQQYDKWPETFGQGTKVDIKR	0.07 µg/mL	0.08 µg/mL					
Fab fragment of antibody clone 796 (Fab) VH: QVQLVESGGGVVQPGRSLRLSCAASGFSFSHFGMHWVRQVPGKGLEWVAIISYDGNNVHYADSVKGRFTISRDNSKNTLFLQMNSLRDDDTGVYYCAKDDVATDLAAYYYFDVWGRGTLVTVSS light: DIVMTQTPLSLSVTPGQPASISCRSSQSLLRSDGKTFLYWYLQKPGQSPQPLMYEVSSRFSGVPDRFSGSGSGADFTLNISRVETEDVGIYYCMQGLKIRRTFGPGTKVEIKRTVAAPSVFIFPPSDEQLKSGTASVVCLLNNFYPREAKVQWKVDNALQSGNSQESVTEQDSKDSTYSLSSTLTLSKADYEKHKVYACEVTHQGLSSPVTKSFNRGEC				480 pM	0.000403 s⁻¹	833000 M⁻¹ s⁻¹	28.7 min
Fab fragment of antibody clone 816 (Fab) VH: EVQLLESGGGLVQPGGSLRLSCVASGFTFSTYAMTWVRQAPGKGLEWVSVIRASGDSEIYADSVRGRFTISRDNSKNTVFLQMDSLRVEDTAVYFCANIGQRRYCSGDHCYGHFDYWGQGTLVTVSS light: DIVMTQSPLSLPVTPGEPASISCRSSQSLLHSDGRYYVDWYLQKPGQSPHLLIYLASNRASGVPDRFTGSGSGTDFTLKISRVEAEDVGVYYCMQGLHTPWTFGQGTKVDIKRTVAAPSVFIFPPSDEQLKSGTASVVCLLNNFYPREAKVQWKVDNALQSGNSQESVTEQDSKDSTYSLSSTLTLSKADYEKHKVYACEVTHQGLSSPVTKSFNRGEC				90 pM	0.000178 s⁻¹	2.02e+06 M⁻¹ s⁻¹	65 min
Fab fragment of antibody clone 853 (Fab) VH: EVQLVQSGAEVKKPGQSLKISCKTSGYIFTNYWIGWVRQRPGKGLEWMGVIFPADSDARYSPSFQGQVTISADKSIGTAYLQWSSLKASDTAIYYCARPKYYFDSSGQFSEMYYFDFWGQGTLVTVSS light: EIVLTQSPGTLSLSPGERATLSCRASQSVSSNYLAWYQQKPGQAPRLLIYGASSRAAGMPDRFSGSGSGTDFTLTISRLEPEDFAVYYCQQYGNSPLTFGGGTEVEIKRTVAAPSVFIFPPSDEQLKSGTASVVCLLNNFYPREAKVQWKVDNALQSGNSQESVTEQDSKDSTYSLSSTLTLSKADYEKHKVYACEVTHQGLSSPVTKSFNRGEC				790 pM	0.0014 s⁻¹	1.77e+06 M⁻¹ s⁻¹	8.25 min
Fab fragment of antibody clone 859 (Fab) VH: QVQLVESGGGVVQPGRSLRLSCAVSGSSFSKYGIHWVRQAPGKGLEWVAVISYDGSKKYFTDSVKGRFTIARDNSQNTVFLQMNSLRAEDTAVYYCATGGGVNVTSWSDVEHSSSLGYWGLGTLVTVSS light: DIQMTQSPSSLSASVGDRVTITCRASQGIRNYLAWYQQKPGKVPKLLVFAASTLQSGVPSRFSGSGSGTDFTLTISSLQPEDVATYYCQRYNSAPLTFGGGTKVEIKRTVAAPSVFIFPPSDEQLKSGTASVVCLLNNFYPREAKVQWKVDNALQSGNSQESVTEQDSKDSTYSLSSTLTLSKADYEKHKVYACEVTHQGLSSPVTKSFNRGEC				120 pM	4.63e-05 s⁻¹	380000 M⁻¹ s⁻¹	250 min
